Measurements published in patent US20240425569A1 (VISTERRA, published 2024).
Substitutions are numbered along the chain they refer to. Where two headings read alike, the source gives them in different places.

Key:
[1] = biological target: dengue virus DENV-3 strain Philippines/1956 (H87) (live virus; E protein) (dengue virus serotype DENV-3, strain …, UniProt P27915 281-773); assay: cell-based or functional assay
[2] = biological target: dengue virus DENV-1 strain Hawaii/1944 (live virus; E protein) (dengue virus serotype DENV-1, strain …); assay: cell-based or functional assay
[3] = biological target: dengue virus DENV-2 strain New Guinea/1944 (NGC) (live virus; E protein) (dengue virus serotype DENV-2, strain …, UniProt P14340 281-775); assay: cell-based or functional assay
[4] = biological target: dengue virus DENV-4 strain Mexico/1997 (BC287/97) (live virus; E protein) (dengue virus serotype DENV-4, strain …); assay: cell-based or functional assay
[5] = biological target: T1, EDIII-DV4 (E protein domain III of dengue virus serotype DV-4) (dengue virus serotype DV-4, UniProt P09866 572-679)
T1 construct: also called DENV-4

[6] = biological target: T2, Philippines/1956 (H87)* (serotype III EDIII) (Dengue virus 3)
T2 construct: isolated EDIII protein

[7] = biological target: T3, Singapore/2008 (serotype II EDIII); assay: Kd table, method not stated; Ag DENV-2 Sing
T3 construct: also called ED3-DV2/Sing08; DENV-2 Sing

[8] = biological target: T4, Brazil/2011 (serotype IV EDIII); assay: ELISA; row Brazil/2011, serotype IV, genotype I
T4 E protein domain III (EDIII): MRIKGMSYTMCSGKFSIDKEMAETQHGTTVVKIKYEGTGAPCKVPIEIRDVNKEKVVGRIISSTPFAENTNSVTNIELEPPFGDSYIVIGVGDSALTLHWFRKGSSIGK

[9] = biological target: T5, Vietnam/2008 (serotype I EDIII)
T5 construct: also called ED3-DV1/Viet08
T5 E protein domain III (EDIII): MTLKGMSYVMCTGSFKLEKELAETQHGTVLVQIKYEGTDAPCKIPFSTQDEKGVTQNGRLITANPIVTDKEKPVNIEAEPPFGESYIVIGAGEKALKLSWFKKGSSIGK

[10] = biological target: T6, Malaysia/2005 (serotype I EDIII)
T6 construct: also called ED3-DV1/Malaysia05
T6 E protein domain III (EDIII): T5 E protein domain III (EDIII) with M6I, S14P, L21V, I33V, T48S, I61V, I89V

[11] = biological target: T7, Singapore/2009 (serotype III EDIII)
T7 construct: also called ED3-DV3/Sing09; DENV-3 Sing
T7 E protein domain III (EDIII): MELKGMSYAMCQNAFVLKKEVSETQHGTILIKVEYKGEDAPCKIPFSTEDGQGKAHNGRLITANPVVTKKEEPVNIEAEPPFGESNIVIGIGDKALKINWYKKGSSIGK

[12] = biological target: T8, Thailand/1997 (serotype IV EDIII); assay: SPR; row Thailand/1997, serotype IV, genotype III
T8 E protein domain III (EDIII): T4 E protein domain III (EDIII) with K19R, I33V, N69S

[13] = biological target: T9, Nicaragua/2010 (serotype III EDIII)
T9 construct: also called ED3-DV3/Nicaragua10; DENV-3 Nic
T9 E protein domain III (EDIII): T7 E protein domain III (EDIII) with Q12T, A14T, A40V, K94N

[14] = biological target: T10, Peru/1995 (serotype II EDIII); assay: ELISA; row Peru/1995, serotype II, genotype American
T10 construct: also called ED3-DV2/Peru95; DENV-2 Peru

[15] = biological target: T11, Puerto Rico/1977 (serotype III EDIII); assay: SPR; row Puerto Rico/1977, serotype III, genotype IV
T11 construct: Genotype IV; also called ED3-DV3/PuertoRico77
T11 E protein domain III (EDIII): T7 E protein domain III (EDIII) with Q12S, N13G, A14T, V33I, G51A, I91T, K97R

[16] = biological target: T2, Philippines/1956 (H87)* (serotype III …); assay: SPR; row Philippines/1956 (H87)*, serotype III, genotype I
[17] = biological target: T3, Singapore/2008 (serotype II EDIII); assay: SPR; row Singapore/2008, serotype II, genotype Cosmopolitan
[18] = biological target: T1, EDIII-DV4 (E protein domain III of …); remark: listed apart in the source
[19] = biological target: T12, Mexico/1977 (BC287/97)* (serotype IV EDIII) (Dengue virus 4); assay: ELISA; row Mexico/1977 (BC287/97)*, serotype IV, genotype IIa
T12 construct: isolated EDIII protein; also called EDIII of DENV-4 Mexico/1997 (BC287/97); DENV-4 BC2

[20] = biological target: T13, Venezuela/2007 (serotype II EDIII); assay: ELISA; row Venezuela/2007, serotype II, genotype SE-Asian/American
T13 construct: also called ED3-DV2/Venezuela07
T13 E protein domain III (EDIII): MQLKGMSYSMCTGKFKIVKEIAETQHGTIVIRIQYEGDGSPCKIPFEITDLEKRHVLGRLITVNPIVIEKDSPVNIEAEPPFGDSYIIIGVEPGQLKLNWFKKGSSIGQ

B1: antibody D88 (antibody, V domains shown)
VH: QVQLVQSGAEVKKPGASVKVSCKAGFNIKDVYMSWVRQAPEQGLEWMGRIDPENGDTKYDPKLQGRVTMTADTSTNTAYMELRSLRSDDTAVYYCARGWEGFAYWGQGTLVTVSS
VL: DIVMTQSPASLAVSLGERATISCRASENVDKYGNSFMHWYQQKPGQPPKLLIYRASELQWGVPDRFSGSGSGTDFTLTISSLQAEDVAVYYCQRSNEVPWTFGQGTKLEIK
notes: also called mAb D88
With B1 the “EC50, FRNT” value [1] was < 1 µg/mL, the “EC50, FRNT” value [2] was < 1 µg/mL and the “EC50, FRNT” value [3] was < 1 µg/mL. The “EC50, FRNT” value [4] was < 1 µg/mL, the Kd [5] was 3.12 nM and the Kd [6] was 1.2 nM. For the same binder, the Kd [7] was < 0.1 nM, the Kd [8] was 14.7 nM and the Kd [9] was < 0.1 nM. The Kd [10] was < 0.1 nM, the Kd [11] was 0.61 nM and the Kd [12] was > 300 nM. For the same binder, the Kd [13] was 4.91 nM, the Kd [14] was < 0.1 nM and the Kd [15] was 1.4 nM. The Kd [16] was 1 nM, the Kd [17] was 0.024 nM and the Kd [18] was 3.8 nM. The Kd [19] was 4.32 nM and the Kd [20] was < 0.1 nM.
